Variants at the floor of the assay were thinned out.
B1: TPR 5TU (parent)
chain: GGAUCUUCUCGAUCUAACAAAAAAGACAAAUCUGCCACAAAGCUUGAGAGCAUCUUCGGAUGCAGAGGCGGCAGCCUUCGGUGGCGCGAUAGCGCCAACGUUCUCAACUAUGACACGCAAAACGCGUGCUCCGUUGAAUGGAGUUUAUCAUG

Variants of: B1
Assay: polymerase ribozyme fitness, log enrichment relative to wild type (log ratio); higher = more active; in vitro selection for triplet polymerase activity
Method in brief: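 A heterodimeric triplet polymerase ribozyme had each of its subunits mutagenized by PCR into a library, which was transcribed. One round of in vitro selection, done in triplicate, annealed each library with a biotinylated primer, its partner subunit and triplets, then incubated it frozen at −7 °C before gel excision of extended constructs, streptavidin-bead capture and RT-PCR. Fitness is the logarithm of genotype enrichment relative to wild-type enrichment, based on Illumina sequencing of inputs and outputs and inverse-variance-weighted replicate averages. A base-2 logarithm is used, and genotypes were kept only with ≥10 input reads and ≥1 read per output.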

Row | Variant | polymerase ribozyme fitness (log ratio)
1 | GGAUCUUCUCGAUCUAACAUAAAAGACAAAUCUGCCACAAAGCUUGCGAGCAUCUUUGGAUGCCGAGGCGGCAGCCUUCGGUGCCGCGAUAGCGCCAACGUUCUCAACUAUGACACGCAAAACGCGUGCUCCGUUGAAUGGAGUUUAGCAUG [A20U A47C C57U A64C G84C U148G] | ≤ -4.2
2 | GGAUCUUCUCGAUCUAACAUAAAAGACAAAUCUGCCACACAGCUUGAGAGCAUCAUCGGAUGCAGAGGCGGCUGCCUUCGGUGGCGCGAUAGCGCCAACGUUCUCAACUAUGACACGCAAAACGCGUGCUCCGUUGAAUGGAGUUUAUCAUG [A20U A40C U55A A73U] | -3.94
3 | GGAUCUUCUCGAUCUAACAUAAAAGACAAAUCUGCCACAAAGCUUGAGAGCGUCUUCGGAUGCAGAGGCGGCAGUCUUCGGUGGCGCAAUAGCGCCAACGUUGUCAACUAUGACACGCCAAACGCGUGCUCCGUUGAAUGGAGUUUAUCAUG [A20U A52G C75U G88A C103G A119C] | ≤ -4.2
4 | GGAUCUUCUCGAUCUAACAUAAAAGACAAAUCUGCCACAAAGCUUGCGAGCAUCUUCGGAUGCAGAGGCGGCAGCCUUCGGUGGCGCGAUAGCGCCAACGUUCUCAACUAUGACACGCAAAACGCGUGCUCCGUUGAAUGGAGUUUAUCAUG [A20U A47C] | -0.824
5 | GGAUCUUCUCGAUCUAACAUAAAAGACAAAUCUGCCACAAAGCUUGAGAGCGUCUUCAGAUGCAGAGGCGGCAGCGUUCGAUGGCACGAUAGCGCCAACGUUCUCAACUAUGACACGCAAACCGCGUGCUCCGUUGAAUGGAGUUUAUCAUG [A20U A52G G58A C76G G81A G86A A122C] | ≤ -4.2
6 | GGAUCUUCUCGAUCUAACAUAAAAGACAAAUCUGCCCCAAAGCUUGAGAGCGUCUUCGGAUGCAGAGGCGGCAGCCUUCGGUGGCGCGAUAGCGCCAACGUUCUCAACUAUGACACGCAAAACUCGUGCUCCGUUGAAUGGAGUUUAUCAUG [A20U A37C A52G G124U] | -2.09
7 | GGAUCUUCUCGAUCUAACAUAAAAGACAAAUCUGCCACAAUGCUUGAAGGCAUCUUCGGAUGCAGAGGCGGCAGCCUUCGGUGGCGCGAUAGCGCGAACGUUCUCGGCUAUGACACGCAAAACGCGUGCUCCGUGGAAUGGAGUUUAUCAUG [A20U A41U G48A A49G C96G A106G A107G U135G] | ≤ -4.2
8 | GGAUCUUCUCGAUCUAACAUAAAAGACAAAUCUGCCACAAAGCUUGAGAGCUUCUUCGGAUGCAGAGGCGGCAGCAUUCGGUGGCGCGAUAGAGCCAACGUUCUCAACUAUGACACGCAAAACGCGUGCUCCGUUGAAUGGAGUUUAUCAUG [A20U A52U C76A C93A] | ≤ -4.2
9 | GGAUCUUCUCGAUCUAACAUAAAAGACAAGUCUGCCACAAAGCUUGAGAGCAACGUCGGAUGGAGAGGCGGCAGCCUUCGGUGGCGCGAUAGCGCCAACGUUCUCAACUAUGACACGCAAAACGCGUGCUCCGUUGAAUGUAGUUUAUCAUG [A20U A30G U53A U55G C63G G141U] | ≤ -4.2
10 | GGAUCUUCUCGAUCUAACAUAAAAGAUAAAUCUGCCACAAAUCUUGAGAGCCUCAUCGGAUGCAGAGGCGGCAGCCUUCGGUGGCGCGAUAGCGGUAACGUUCUCAACUAUGACACGCAAAACGCGUGCUCCGUUGAAUGGAGUUUAUCAUG [A20U C27U G42U A52C U55A C95G C96U] | ≤ -4.2
11 | GGAUCUUCUCGAUCUAACAUAAAAGACAAAUCUGCCACAAAGCUUGUGCGCAACUUCGGAUGCAGAGGCGGCAGCCUUCCGUGGCGCGAUUGCGCUAACGUUCUCAACUAUGACACGCAAAACGCGUGCUCCGUUGGAUUGAGUUUAUCAUG [A20U A47U A49C U53A G80C A91U C96U A137G G140U] | ≤ -4.2
12 | GGAUCUUCUCGAUCUAACAUAAAAGACAAAUCUGCCACUAAGCUUGAGAGGAUCUUCGGAUGCAGCGGCGGCAGCCUUCGGUGGCGCGAUAGGGCCAACGUUCUCAACUAUGACACGCAAAACGCGUGCUCCGAUGAAUGGAGUUUAUCAUG [A20U A39U C51G A66C C93G U134A] | ≤ -4.2
13 | GGAUCUUCUCGAUCUAACAUAAAAGACAAAUCUGCCACACAGCUUGAGAGCAUCUUCGGAUGCAGAGGCGGCAGCCUUCGGUGGCGCGAUAGCGCCAACGUUCUCAACUAUGACACGCAAAACGCGUGCUCCGUUGAAUGGAGUUUAUCAUG [A20U A40C] | -0.959
14 | GGAUCUUCUCGAUCUAACAUAAAAGACAACUCUGCCACAAGGCUUGAGAGCAUCUUCGGAUGCAGAGGCGGCAUCCUUCGGUGGCGCGAUAGUGCCAACGUUCUCAACUAUGACACGCAAAACGCGUGCUCCGUUGAAUGGAGUUUAUCAUG [A20U A30C A41G G74U C93U] | ≤ -4.2
15 | GGAUCUUCUCGAUCUAACAUAAAAGAAAAAUCUGCCAGAAAGCUUGAGAGCAUUUUCGGAUGCAGAGGCGGCAGCCUUUGGUGGCGCGAUAGCGCCAACGUUCUCAACUAUAACACGCAAAACGCGUGCUCCGUUGAAUGGAGUUUAUCAUG [A20U C27A C38G C54U C79U G112A] | ≤ -4.2
16 | GGAUCUUCUCGAUCUAACAUAAAAGACAAAUCUGCCACAAAGCUUGGGAUCAUCUUCGGAUGCAGAGGCGGCAGCCUUCGGUGGGGCGAUAGCGCCAACGUUCUCAACUAUGACACGCAAAACGCGUGCUCCGUUGAAUGGAGUUUAUCAUG [A20U A47G G50U C85G] | -3.77
17 | GGAUCUUCUCGAUCUAACAUAAAAGACAAAUCUGCCACAAAGCUUGAGAGCAUCUUCGGAUGCAGAGGCGGCAGCCUUCGGUGGCGCGAUAGCGCCAACGUUCUCAACUAUGACACGCAAAUCGCGUGCUCCGUUGAAUGGAGGUUAUCAUG [A20U A122U U144G] | -0.756
18 | GGAUCUUCUCGAUCUAACAUAAAAGACAAAUCUGCCACAAAGCUUGAGAGCAUCUUCGGAUGCAGAGGCGGCGGCCUUAGGUGGCGCGAUAGCGCGAACGUUCUCAACUAUGACACGCAAAACGCGUGCUCCGUUGAAUGGAGUUUAUCAUG [A20U A73G C79A C96G] | ≤ -4.2
19 | GGAUCUUCUCGAUCUAACAUAAAAGAAAAAGCUGCCACAGAUCUUGAGAGCAUCUUCGGAUGCAGAGGCGGCAGCCUUCGGUGGCGCGAUAGCGCGGACGUUCUCAACUAUGACACGCAAAACGCGUGCUCCGUUGAAUGGAGUUUAUCAUG [A20U C27A U31G A40G G42U C96G A97G] | ≤ -4.2

From the RNAGym collection of RNA variant scans (doi:10.1073/pnas.2313332121)
